This is an account of results in IntAct's records for PubMed 7518772.

B1: Receptor-type tyrosine-protein phosphatase alpha (Mus musculus), P18052 (parent)
chain: MDSWFILVLFGSGLIHVSANNATTVSPSLGTTRLIKTSTTELAKEENKTSNSTSSVISLSVAPTFSPNLTLEPTYVTTVNSSHSDNGTRRAASTESGGTTISPNGSWLIENQFTDAITEPWEGNSSTAATTPETFPPADETPIIAVMVALSSLLVIVFIIIVLYMLRFKKYKQAGSHSNSFRLSNGRTEDVEPQSVPLLARSPSTNRKYPPLPVDKLEEEINRRMADDNKLFREEFNALPACPIQATCEAASKEENKEKNRYVNILPFLSLAVSKDAVKALNKTTPLLERRFIGKSNSRGCLSDDHSRVHLTPVEGVPDSDYINASFINGYQEKNKFIAAQGPKEETVNDFWRMIWEQNTATIVMVTNLKERKECKCAQYWPDQGCWTYGNVRVSVEDVTVLVDYTVRKFCIQQVGDVTNRKPQRLITQFHFTSWPDFGVPFTPIGMLKFLKKVKACNPQYAGAIVVHCSAGVGRTGTFVVIDAMLDMMHSERKVDVYGFVSRIRAQRCQMVQTDMQYVFIYQALLEHYLYGDTELEVTSLETHLQKIYNKIPGTSNNGLEEEFKKLTSIKIQNDKMRTGNLPANMKKNRVLQIIPYEFNRVIIPVKRGEENTDYVNASFIDGYRQKDSYIASQGPLLHTIEDFWRMIWEWKSCSIVMLTELEERGQEKCAQYWPSDGLVSYGDITVELKKEEECESYTVRDLLVTNTRENKSRQIRQFHFHGWPEVGIPSDGKGMINIIAAVQKQQQQSGNHPITVHCSAGAGRTGTFCALSTVLERVKAEGILDVFQTVKSLRLQRPHMVQTLEQYEFCYKVVQEYIDAFSDYANFK

In this assay the parent is B1. To be noted: with src_mouse Src.
Y825F: the “effect of a mutation on the interaction” value is reported as “disrupting interaction”.
